Reference: the supplement of paper PMC9732359
± gives the uncertainty stated by the source.

Test: protein stability index of a GFP-peptide fusion (yeast GPS) (PSI 1-4); higher = more stable; sorted into four equal gates, so the index is relative within each strain
How it was run: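 Sequencing reads from sorted gates were used to score each peptide. The library consisted of tiled 17-residue yeast protein peptides fused downstream of GFP on a Cherry-expressing plasmid, pooled and carried in yeast. Mid-log cultures in leucine-free medium were split into four equal gates by GFP/Cherry ratio, and each gate's plasmids were PCR-amplified and Illumina-sequenced. The protein stability index adds up, over all gates, the read frequency multiplied by the gate number.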

Sequence | protein stability index (doa10∆) | protein stability index (pdr5∆) | protein stability index (san1∆) | protein stability index (ubr1∆)
ARRRQPTDQNNQSNLNG [SNF2] | 2.88 ± 0.12 | 3.25 ± 0.19 | 3.11 ± 0.07 | 3.24 ± 0.16
LQAFGESESTTNVYSKD [RPB3] | 2.08 ± 0.081 | 2.1 ± 0.06 | 1.68 ± 0.076 | 1.72 ± 0.041
DAAEEEKEEEAKEESDD [RPP2B] | 2.88 ± 0.3 | 3.22 ± 0.14 | 3.09 ± 0.3 | 3.41 ± 0.078
PKGVILYGAPGTGKTLL [RPT2] | 3.67 ± 0.27 |  |  | 3.13 ± 0.22
VDNVTLESYKTQAKKLY [SRP72] | 3.02 ± 0.11 | 2.87 ± 0.14 |  | 2.89 ± 0.11
PGGQAALRALARSGLRI [RPS14A] | 2.15 ± 0.032 | 2.35 ± 0.029 | 2.21 ± 0.04 | 1.92 ± 0.022
FITAKDKYKLYPVRIPR [YJR042W/NUP85] | 2.87 ± 0.06 | 2.73 ± 0.087 | 3.06 ± 0.077 | 2.89 ± 0.069
PHLIIQNHNSKSTDNSA [IRR1] | 2.71 ± 0.047 | 2.88 ± 0.057 | 2.81 ± 0.05 | 2.78 ± 0.034
NFNSVNDANITSNKEGF [SSN2] | 3 ± 0.11 | 3.25 ± 0.084 | 3.32 ± 0.054 | 3.12 ± 0.065
QVMEEKLDENNAQLSCI [PUP2] | 3.31 ± 0.086 | 2.69 ± 0.27 | 2.86 ± 0.19 | 3.17 ± 0.17
AARVDIGQIIFSVRTKD [RPL10] | 1.74 ± 0.078 | 1.67 ± 0.081 | 2.78 ± 0.12 | 2.04 ± 0.057
TKMFEDRREKAERTMSK [SMC2] | 3.4 ± 0.14 | 3.37 ± 0.1 | 3.22 ± 0.086 | 3.54 ± 0.088
NYIENMNEMCKKINAKE [RPN8] | 2.84 ± 0.045 | 3.07 ± 0.059 | 3.12 ± 0.043 | 3 ± 0.039
NEDSKAFHTAVLRLNAI [NUT1] | 3.26 ± 0.058 | 3.34 ± 0.055 | 3.41 ± 0.047 | 3.27 ± 0.051
EEAAGTKMFEDRREKAE [SMC2] | 3.4 ± 0.15 | 3.36 ± 0.18 | 3.26 ± 0.089 | 3.6 ± 0.11
EYEELKEKIEKLSKSAT [SMC1] | 3.33 ± 0.12 | 3.09 ± 0.22 | 2.98 ± 0.079 | 3.08 ± 0.073
DYTLQDIICEDSTLILE [RPB2] | 2.83 ± 0.082 | 2.64 ± 0.078 | 2.11 ± 0.11 | 2.15 ± 0.072
STPNFGGNSNKSPPQFF [SIN4] | 2.88 ± 0.039 | 3.1 ± 0.043 | 2.89 ± 0.03 | 2.9 ± 0.032
PRMYHIGLRQFQQIQYE [POP1] | 2.06 ± 0.098 | 1.67 ± 0.071 | 2.25 ± 0.095 | 1.48 ± 0.1
LLNHGERAELETDEYIS [RPN1] | 1.55 ± 0.16 | 1.87 ± 0.083 | 3.08 ± 0.11 | 2.66 ± 0.11
FTNVLTKYSDVLGFLQL [YJL039C/NUP192] | 2.59 ± 0.072 | 2.07 ± 0.071 | 2.85 ± 0.053 | 2.01 ± 0.052
VNEPTKNEEAEIEVDEM [RPN1] | 3.25 ± 0.17 | 3.22 ± 0.23 | 3.08 ± 0.14 | 3.45 ± 0.16
VNDVEELGEIIDEDIGN [RMP1] | 3.41 ± 0.15 |  | 2.98 ± 0.2 | 3.19 ± 0.28
VSTKMHRTIVIRRAYLH [RPS11A] | 1.37 ± 0.047 | 1.14 ± 0.054 | 1.54 ± 0.087 | 1.12 ± 0.033
TQNSRHYMVHEALNLLK [LIN1] | 3.03 ± 0.086 | 2.98 ± 0.075 | 2.76 ± 0.077 | 3.07 ± 0.064
DAAAEEEKEEEAAEESD [RPP1B] | 3.19 ± 0.13 | 3.25 ± 0.13 | 3.04 ± 0.1 | 3.29 ± 0.073
KNRSTIFWGIRLAKSTE [BRR2] | 3.04 ± 0.29 | 2.97 ± 0.16 |  | 2.95 ± 0.17

Sequence | protein stability index (doa10∆) | protein stability index (pdr5∆) | protein stability index (san1∆) | protein stability index (ubr1∆)
FHSEPDRDENWIHVSCL [LIN1] | 3.16 ± 0.075 | 3.27 ± 0.054 | 3.07 ± 0.045 | 3.13 ± 0.039
RKALPKEPKKLLPNSKN [DSN1] | 2.55 ± 0.063 | 2.69 ± 0.071 | 2.69 ± 0.084 | 2.87 ± 0.05
MQRHVKVDGKVRTDTTY [RPS4A] | 3.26 ± 0.1 | 3.28 ± 0.083 | 3.03 ± 0.088 | 3.06 ± 0.063
LVSSYLNKSDLLDKYGK [YML103C/NUP188] | 2.87 ± 0.091 | 3.13 ± 0.058 | 3.17 ± 0.053 | 2.89 ± 0.065
DQGNGWLYVYETPNQDA [RPN6] | 2.36 ± 0.061 | 2.01 ± 0.051 | 2.23 ± 0.067 | 2.38 ± 0.037
QLETLTGSIRHRLKLCK [CSE2] | 3.32 ± 0.26 | 3.05 ± 0.17 |  | 2.97 ± 0.21
EQPCVDIISGKIHSILP [YJR042W/NUP85] | 3.02 ± 0.067 | 3.07 ± 0.1 | 3 ± 0.064 | 3 ± 0.053
FLLEKAGERKIPHDLNF [TAF14] | 2.43 ± 0.067 | 2.71 ± 0.062 | 2.61 ± 0.051 | 2.47 ± 0.046
RAYMRPLGVILTFVSVD [SCL1] | 1.74 ± 0.049 | 1.81 ± 0.044 | 2.05 ± 0.083 | 2.16 ± 0.04
DLTMGQVGERIKQTFKN [RPO21] | 3.31 ± 0.15 | 2.81 ± 0.19 | 3.25 ± 0.073 | 3.23 ± 0.11
YGRDDMENIKKSIDSKT [ISW2] | 2.87 ± 0.11 | 2.94 ± 0.1 | 3.21 ± 0.062 | 3.03 ± 0.082
RELLKSQVEDFTRIFLP [SIR3] | 3.2 ± 0.053 | 3.1 ± 0.059 | 3.13 ± 0.053 | 3.33 ± 0.045
QRKTVNSDDILSLHENY [POP1] | 2.55 ± 0.053 | 2.65 ± 0.069 | 2.54 ± 0.068 | 2.92 ± 0.039
TDGDSILYYDVLFITPD [BRR2] | 2.47 ± 0.068 | 2.5 ± 0.064 | 2.54 ± 0.068 | 2.94 ± 0.051
RIPFSERKLKFSNRFLP [FAS1] | 1.28 ± 0.084 | 1.17 ± 0.077 | 1.11 ± 0.13 | 1.31 ± 0.084
VPVIVKARFVSKLAEEK [RPL28] | 2.71 ± 0.024 | 2.832 ± 0.024 | 2.786 ± 0.018 | 2.861 ± 0.02
EGQADIDMESDVEDDDK [POP7] | 3.37 ± 0.095 | 3.18 ± 0.11 | 3.3 ± 0.07 | 3.27 ± 0.042
LLNEYRPHQSRESLIML [MED7] | 2.31 ± 0.074 | 2.15 ± 0.12 | 2.01 ± 0.12 | 1.98 ± 0.059
SQKHNGRILKWLWPLCR [CDC53] | 1.52 ± 0.063 | 1.33 ± 0.071 | 1.35 ± 0.094 | 1.12 ± 0.04
MTMLTPNYLHLVSSYLN [YML103C/NUP188] | 1.82 ± 0.039 | 1.66 ± 0.035 | 1.69 ± 0.051 | 1.4 ± 0.032
FTNRSTMMANFEEWIKM [BRN1] | 2.12 ± 0.18 | 2.31 ± 0.19 | 2.32 ± 0.1 | 2.65 ± 0.054
NIFSEAVKNKYNVGKQL [PRP28] | 1.55 ± 0.085 | 2.43 ± 0.11 | 1.82 ± 0.14 | 2.37 ± 0.076
ISLPKGKGIKLSIAEER [RPS4A] | 2.03 ± 0.15 | 2.18 ± 0.28 | 2.62 ± 0.081 | 2.47 ± 0.077
ENNRLLFECRTCSYVEE [RPB9] | 3.12 ± 0.13 | 3.2 ± 0.14 | 3.04 ± 0.17 | 3.29 ± 0.16
MSSTTPKLESVKWQYDP [SNF12] | 3.16 ± 0.065 | 3.25 ± 0.066 | 3.09 ± 0.048 | 3.39 ± 0.062
QGIIYAKVNRPAKIVNF [RPN5] | 2.61 ± 0.13 | 2.72 ± 0.15 | 2.37 ± 0.12 | 2.4 ± 0.16
